Test results from patent publication US20260258390.

Target: T1, succinyl-L-Ala-L-Ala-L-Pro-L-Phe-p-nitroanilide (SEQ ID NO: 1)
T1 chain: AAPF

| Protein | Km pH 8.6 (mM) | Km pH 10 (mM) | kcat pH 8.6 (% of wild-type) (% of wild-type) | kcat pH 10 (% half-life of wild-type) (% of wild-type) | kcat/Km pH 8.6 (% of wild-type) (% of wild-type) | kcat/Km pH 10 (% wild-type) |
| --- | --- | --- | --- | --- | --- | --- |
| N74D/S99G/V102W/S126G/N198A/N212S/T254P (variant of sequence SEQ ID NO: 5) (protein) AQSVPWGISRVQAPAAHNRGLTGSGVKVAVLDTGISTHPDLNIRGGASFVPGEPSTQDGNGHGTHVAGTIAALDNSIGVLGVAPSAELYAVKVLGASGGGSWSSIAQGLEWAGNNGMHVANLSLGGPSPSATLEQAVNSATSRGVLVVAASGNSGAGSISYPARYANAMAVGATDQNNNRASFSQYGAGLDIVAPGVAVQSTYPGSTYASLSGTSMATPHVAGAAALVKQKNPSWSNVQIRNHLKNTATSLGSPNLYGSGLVNAEAATR | 0.05 | 0.09 | 503 | 723 | 6360 | 10800 |
| N74D/S99G/V102W/S126G/D191E/N198G/N212S/T254P (variant of sequence SEQ ID NO: 4) (protein) AQSVPWGISRVQAPAAHNRGLTGSGVKVAVLDTGISTHPDLNIRGGASFVPGEPSTQDGNGHGTHVAGTIAALDNSIGVLGVAPSAELYAVKVLGASGGGSWSSIAQGLEWAGNNGMHVANLSLGGPSPSATLEQAVNSATSRGVLVVAASGNSGAGSISYPARYANAMAVGATDQNNNRASFSQYGAGLEIVAPGVGVQSTYPGSTYASLSGTSMATPHVAGAAALVKQKNPSWSNVQIRNHLKNTATSLGSPNLYGSGLVNAEAATR | 0.11 | 0.19 | 579 | 719 | 3330 | 5100 |
| wild-type subtilisin of Bacillus lentus (SEQ ID NO: 2) (protein) AQSVPWGISRVQAPAAHNRGLTGSGVKVAVLDTGISTHPDLNIRGGASFVPGEPSTQDGNGHGTHVAGTIAALNNSIGVLGVAPSAELYAVKVLGASGSGSVSSIAQGLEWAGNNGMHVANLSLGSPSPSATLEQAVNSATSRGVLVVAASGNSGAGSISYPARYANAMAVGATDQNNNRASFSQYGAGLDIVAPGVNVQSTYPGSTYASLNGTSMATPHVAGAAALVKQKNPSWSNVQIRNHLKNTATSLGSTNLYGSGLVNAEAATR | 0.63 | 1.34 | 100 | 100 | 100 | 100 |
| N74D/S101A/V102W (control variant of WO1995010591; sequence SEQ ID NO: 3) (protein) AQSVPWGISRVQAPAAHNRGLTGSGVKVAVLDTGISTHPDLNIRGGASFVPGEPSTQDGNGHGTHVAGTIAALDNSIGVLGVAPSAELYAVKVLGASGSGAWSSIAQGLEWAGNNGMHVANLSLGSPSPSATLEQAVNSATSRGVLVVAASGNSGAGSISYPARYANAMAVGATDQNNNRASFSQYGAGLDIVAPGVNVQSTYPGSTYASLNGTSMATPHVAGAAALVKQKNPSWSNVQIRNHLKNTATSLGSTNLYGSGLVNAEAATR | 0.29 | 0.33 | 638 | 554 | 1390 | 2260 |
| N74D/S97D/S126G/P204I/T254P/S259N (variant of sequence SEQ ID NO: 6) (protein) AQSVPWGISRVQAPAAHNRGLTGSGVKVAVLDTGISTHPDLNIRGGASFVPGEPSTQDGNGHGTHVAGTIAALDNSIGVLGVAPSAELYAVKVLGADGSGSVSSIAQGLEWAGNNGMHVANLSLGGPSPSATLEQAVNSATSRGVLVVAASGNSGAGSISYPARYANAMAVGATDQNNNRASFSQYGAGLDIVAPGVNVQSTYIGSTYASLNGTSMATPHVAGAAALVKQKNPSWSNVQIRNHLKNTATSLGSPNLYGNGLVNAEAATR | 0.66 | 0.52 | 55 | 37 | 51 | 97 |
